Source: patent publication US20200216495A1 (ADRX, published 2020)
Several values for one entry are separate records, joined by “and”; a condition that tells them apart may be missing. Equal entries are not always repeated. Square brackets hold non-standard residues; d marks the D form. Ends that are not written are not given here.

Target: Tau40 P301L protein (human)
Test: cell-based or functional assay

Row | Binder | IC50, Tau40 assay (ThT)
1 | [dW][dH][dV][dR][dI][dR][dH][dV] [whvrirhv] | 5.03 µM
2 | [dK][dL][dK][dI][dK][dW] [klkikw] | 6.87 µM
3 | [dW][dN][dL][dK][dV][dN][dW] [wnlkvnw] | 4.86 µM
4 | [dK][dI][dR][dI][dH][dY][dH] [kirihyh] | 4.92 µM
5 | [dY][dR][dL][dK][dV][dR][dW] [yrlkvrw] | 4.69 µM
6 | [dW][dQ][dL][dQ][dV][dR][dW] [wqlqvrw] | 6.57 µM
7 | [dE][dK][dI][dR][dI][dH][dY][dH] [ekirihyh] | 7.42 µM
8 | [dL][dK][dV][dR][dW][dW] [lkvrww] | 6.48 µM
9 | [dR][dL][dK][dV][dW][dW] [rlkvww] | 7.01 µM
10 | [dK][dI][dR][dI][dH][dY][dH][dL] [kirihyhl] | 4.59 µM
11 | [dW][dK][dV][dW]G[dR][dV][dW] (not fully specified (residue 5); printed as wkvwgrvw) [wkvwgrvw] | 8.42 µM and 14.1 µM
12 | [dR][dL][dR][dI][dH][dW] [rlrihw] | 6.87 µM
13 | [dW][dR][dH][dK][dV][dR][dW] [wrhkvrw] | 5.5 µM
14 | [dI][dH][dY][dH][dR][dI][dK][dL] [ihyhrikl] | 5.12 µM
15 | [dL][dR][dI][dE][dI][dE][dW][dH] [lrieiewh] | 5.89 µM and 9.68 µM
16 | [dF][dE][dL][dR][dI][dK][dH][dY] [felrikhy] | 6.57 µM and 12 µM
17 | [dF][dK][dL][dH][dL][dK][dH][dY] [fklhlkhy] | 7.19 µM and 7.53 µM
18 | [dW][dR][dL][dR][dV][dW] [wrlrvw] | 5.48 µM and 5.5 µM
19 | [dF][dK][dL][dK][dL][dW][dW][dF] [fklklwwf] | 7.22 µM and 15 µM
20 | [dL][dE][dI][dK][dI][dR][dH][dW] [leikirhw] | 5.38 µM and 8.72 µM
21 | [dW][dR][dL][dL][dV][dR][dW][dW] [wrllvrww] | 6.46 µM

Row | Binder | IC50, Tau40 assay (ThT)
22 | [dR][dI][dR][dL][dH][dW] [rirlhw] | 6.97 µM
23 | [dR][dL][dK][dW][dR][dW] [rlkwrw] | 5.62 µM
24 | [dL][dK][dI][dR][dI][dE][dY][dH] [lkirieyh] | 8.14 µM
25 | [dL][dK][dI][dR][dI][dH] [lkirih] | 4.95 µM
26 | [dY][dH][dV][dK][dF][dR][dH][dW] [yhvkfrhw] | 4.71 µM
27 | [dL][dK][dI][dR][dI][dE][dH][dY] [lkiriehy] | 4.53 µM
28 | [dY][dR][dV][dR][dI][dQ][dH][dI] [yrvriqhi] | 5.13 µM
29 | [dK][dL][dK][dL][dR][dW] [klklrw] | 5.92 µM and 5.99 µM
30 | [dK][dL][dK][dI][dV][dW] [klkivw] | 6.9 µM
31 | [dV][dK][dV][dW]G[dR][dL][dW] (not fully specified (residue 5); printed as vkvwgrlw) [vkvwgrlw] | 6.72 µM
32 | [dW][dW][dL][dK][dL][dR][dW][dW] [wwlklrww] | 7.64 µM
33 | [dL][dH][dI][dK][dL][dK][dH][dF] [lhiklkhf] | 4.44 µM and 4.64 µM
34 | [dW][dR][dL][dK][dV][dE][dW] [wrlkvew] | 6.67 µM
35 | [dR][dL][dW][dV][dR][dW] [rlwvrw] | 8.02 µM
36 | [dL][dK][dI][dF][dI][dH][dY][dH] [lkifihyh] | 4.57 µM
37 | [dR][dI][dH][dY][dH][dL][dK][dI] [rihyhlki] | 6.63 µM
38 | [dW][dD][dL][dR][dL][dQ][dY][dW] [wdlrlqyw] | 8.33 µM and 10.1 µM
39 | [dF][dR][dL][dR][dI][dW][dW][dF] [frlriwwf] | 6.85 µM and 10.8 µM
40 | [dW][dR][dF][dH][dI][dH][dF][dY] [wrfhihfy] | 6.53 µM and 7 µM
41 | [dT][dL][dK][dI][dE][dW] [tlkiew] | 8.08 µM
42 | [dY][dR][dI][dR][dL][dE][dH][dV] [yrirlehv] | 6.3 µM

Row | Binder | IC50, Tau40 assay (ThT)
43 | [dW][dR][dL][dK][dH][dR][dW] [wrlkhrw] | 5.86 µM
44 | [dW][dH][dV][dR][dL][dN][dH][dL] [whvrlnhl] | 6.39 µM
45 | [dF][dH][dL][dE][dI][dR][dH][dW] [fhleirhw] | 6.87 µM
46 | [dL][dK][dI][dR][dI][dH][dA][dH] [lkirihah] | 6.41 µM
47 | [dF][dW][dL][dR][dI][dH][dW][dF] [fwlrihwf] | 7.28 µM and 7.56 µM
48 | [dA][dW][dA][dK][dV][dR][dW] [awakvrw] | 8.38 µM
49 | [dW][dR][dL][dW][dI][dH][dW][dW] [wrlwihww] | 5.99 µM and 7.56 µM
50 | [dE][dK][dI][dR][dI][dH][dY] [ekirihy] | 5.58 µM
51 | [dW][dR][dV][dH][dF][dE][dH][dW] [wrvhfehw] | 6.86 µM
52 | [dI][dR][dI][dH][dY][dH][dL][dK] [irihyhlk] | 7.39 µM
53 | [dF][dE][dL][dK][dL][dR][dW][dH] [felklrwh] | 4.94 µM and 5.3 µM
54 | [dK][dL][dK][dW][dL][dW] [klkwlw] | 4.41 µM
55 | [dY][dR][dI][dR][dI][dN][dH][dL] [yririnhl] | 6.5 µM
56 | [dW][dE][dL][dK][dV][dR][dW] [welkvrw] | 7.92 µM
57 | [dW][dL][dK][dV][dR][dW] [wlkvrw] | 5.51 µM
58 | [dF][dR][dV][dK][dI][dE][dH][dW] [frvkiehw] | 5.25 µM
59 | [dF][dH][dI][dE][dI][dR][dH][dF] [fhieirhf] | 6.06 µM
60 | [dW][dI][dK][dI][dV][dR] [wikivr] | 6.97 µM
61 | [dT][dW][dR][dL][dV][dL] [twrlvl] | 7.46 µM
